Columns and labels:
tobacco BY-2 cells [1] = experiment: CBD-induced cell death of tobacco BY-2 cells (FDA fluorescence); type: cell-based; settings: 0.5 mM CBD
Excerpt: (§1) For tobacco, the ABC and PTR Transporter genes were cloned into a plant binary expression vector (pGreen 0029) via Agrobacterium mediated transformation as previously described [Cohen, S. et at, Nat. Commun. (2014) 5:4026]. These genes were cloned between the cauliflower mosaic virus (CaMl,) 35S promoter and the polyadenylation signal from the nopaline synthase gene and inserted into tobacco BY2 cells and plants (var. Samson) via stable transformation..
The toxic effect and cell death activity of terpenes and cannabinoids in tobacco was assessed on cell cultures as follows: 7-day-old suspension cultured BY-2 tobacco cells at a 5-fold dilution in logarithmic growth phase, incubated in Gamborg B5 medium, was incubated in the presence of 0.5 mM CBD for 48 hours as previously described [Sirikantaramas S. et al., Plant Cell Physiol. (2005) 46:1578-1582].
Cell death in the samples was evaluated using the cell viability indicator fluorescein diacetate (FDA, Sigma-Aldrich). Cell suspension (2.5 mL) was stained with 50 μL of 0.5% fluorescein diacetate (FDA) dissolved in acetone for 10 min. The cells were rinsed three times with I mL isotonic medium to remove excess staining solution. Viability was assessed immediately using an Olympus BX50 fluorescence microscope equipped with a suitable barrier filter (excitation 460-490 nm and emission 510 nm). FDA staining of viable cells results in bright green fluorescence, while nonviable cells remain colorless.

yeast cells [2] = experiment: Yeast growth (turbidity A600) in the presence of CBD; type: cell-based, Saccharomyces cerevisiae (strain Y1HGold); settings: 0.5 mM CBD; for inhibition of yeast growth in response to CBD, transporter-expressing yeast vs control yeast: 7-12 hours
Protocol: (§2) The genes were expressed in yeast and tobacco. For yeast, the ABC and PTR Transporter genes were synthesized by the TWIST Co, cloned and expressed (individually) in the yeast expression vector pESC-URA (Agilent Technologies) for expression under the yeast native gal-10 promoter. Competent Saccharomyces cerevisiae (strain Y1HGold, CloneTech) cells were prepared, transformed by each of the resulting vector and selected on yeast synthetic media lacking Uracil as previously described [GietzR. D., Methods Mol. Biol. (2014) 1205:1-12].
An alternative method is to measure the yeast growth as a function of turbidity. Transformed yeast cells were grown on URA-glucose broth at 30° C. at 200 RPM, and after 24 hours 100 μl was used to inoculate 5 ml of URA-galactose broth in the same conditions till O.D.600 of 1.5. The yeast was further diluted to OD600=0.05 with 10 ml URA-galactose, and divided into two 5 ml aliquots into separate 50 ml falcon tubes. The first falcon (control) was added 78 μl acetonitrile (the solvent that the CBD was dissolved in), and the second one was added 78 μl CBD solution in acetonitrile (final CBD concentration=0.5 mM). […]

yeast cells [3] = experiment: Uptake of CBD into yeast cells; type: cell-based, Saccharomyces cerevisiae (strain Y1HGold); settings: 0.5 mM CBD; for net uptake of CBD into yeast cells compared to control (empty vector) yeast: three hour incubation, FIG. 3A and FIG. 4
Protocol: as §2
An additional strategy for determining transporter function is to measure the amount of exogenous CBD taken up and incorporated into the cells.
Transformed yeast cells were grown on URA-glucose broth at 30° C. at 200 RPM, and after 24 hours 100 μl was used to inoculate 5 ml of URA-galactose broth in the same conditions till OD600 of […]. The yeast was incubated with 0.5 mM CBD for 2-8 hours in 30° C. at 100 RPM, then centrifuged at 15000 g for 1 minute, and washed twice with 1 ml distilled water. The pellet was weighed and underwent HPLC analysis to determine the pellet's CBD content. The pellet was extracted in 1 ml methanol, and following centrifugation and filter was analyzed by HPLC using a diode-array detector and CBD was quantified against a commercial standard.

tobacco BY-2 cells [4] = experiment: Uptake of CBD into tobacco BY-2 cells; type: cell-based; settings: 0.5 mM CBD
Excerpt: as §1
[…] The pellet was weighed and underwent HPLC analysis to determine the pellet CBD content, as indicated above.

C=C(C)[C@@H]1CCC(C)=C[C@H]1c1c(O)cc(CCCCC)cc1O [CBD, Cannabidiol, reference compound]
fluorescence (FDA viability) of control BY2 cells in the presence of CBD (tobacco BY-2 cells [1]; control BY2 cells, FIG. 6A top): small decrease
growth with CBD as % of growth without CBD (yeast cells [2]; control (empty vector) yeast, 7-12 hours after initiation, FIG. 2): 42%

B1: T-792-1: Cannabis ABC-G transporter gene product, amino acid SEQ ID NO: 47 (protein)
chain: MASVTPSTTIDQEHYHNKKVTISRTTSTTSSNNNTNHGNPRITVVEIETANNRNASYRSSIFGADHEVSLPVVEDHQGVFLTWQDLWVTVSSGKNSNRPILRGLTGYAKPGELLAIMGPSGCGKSTLLDALAGRLNANTRQSGDILINGNKQTLAYGTSAYVTQEDTLLTTLTVREAVHYSAQLQLPDSMSSAEKKERAEMTIREMGLTDAVNTRIGGSGLGTGSKGLSGGQKRRVSICIEILTRPKLLFLDEPTSGLDSAASYYVMSSIASLDIQSRRGGGAGGRRTVVASIHQPSSEVFQLFNTLCLLSAGKIVYFGPASAANEFFTMSGFPCPSLQNPSDHFLKTINKDFDKVQKDLEQGLPIRGRPTVEEAIETLVKSYKASENCQLVQQQVSQICNKKNKSVGLMEKKRSHAGFISQCGVLTRRSFKNMYRDLGYYWFRLVIYIGLAIGLGTIFCNIGHSDGSVEARASLIMYVASFLTFMTIGGFPSFVEDMKVFGRERLNGHYSVTSFVMGNTISAQPYLVLIALIPGALAYFPPGLRGGFEHFIYFVLVLYACMMLVESLMMIVAALVPNFLLGIITGAGIQGFMMLAGGFFRLPNDLPDPFWRYPVFYISFHRYAFQGLYKNEFKGLMFVDEILGKSHKISGDEILRNKYQVNMSYSKWVDFVLLLSMVFAYRVMFLLILKISENYKTISAAFAFGRRKPSTQVMENPTATPPHA
modifications: ABC+PTR Transporter amino acid sequence (of the 12 identified gene products)
CBD levels in yeast cells compared to the control (yeast cells [3]; 5 hour period, FIG. 3B): increase in CBD levels
inhibition of yeast growth in response to CBD, transporter-expressing yeast vs control yeast (yeast cells [2]; FIG. 2): reduced inhibition of growth

B2: T-790-1: Cannabis ABC-B transporter gene product, amino acid SEQ ID NO: 46 (protein)
chain: MDNKTNKHRGGNGDGDDNEDQDQEDTKKNNNNNNSNKVSLLKLFSFADFYDYVLMGIGTIGAIIHGASVPIFFIFFGKLINVIGMAYLFPKEASHKVAKYSLDFVYLSIAILFSSWTEVACWMHTGERQAAKMRMAYLRAMLSQDISLFDTEASTGEVISAITSDIIVVQDALSEKVGNFLHYISRFVVGFIVGFARVWQISLVTLSIVPLIALAGGVYAYIATGLIARVRKSYVKAGEIAEEVIGNVRTVQAFAGEEKAVKMYTSALAHTYMYGRKAGLAKGLGLGFMHCTLFLSWSLLVWYVSIVVHKSIANGGESFTTMLNVVIAGLSLGQAALDISAFVRAKAAAYPIFAMIERNTASKSSAMSGRKLGKLEGHIQFNNVTFSYPSRPDVTIFNKLSLDIPSGKIVALVGGSGSGKSTVISLIERFYEPLSGEILLDGNNIKELDLKWMRQQIGLVNQEPALFATSIRENILYGKDEASLDEITRAAKLSEAISFINNLPERFETQVGERGIQLSGGQKQRIAISRAIVKNPSILLLDEATSALDAESEKSVQEALDRVMVGRTTVVVAHRLSTIRNADIIAVVQEGKIVETGCHDELISNPNSVYSSLVQLQEAAPLQRNSSLGRPPSIKFSRELSRTTTSFGASFRSDKDSISRVGADGGAVEPVKTTNVSAKRLYSMIGPDWLYGLCGTICAFIAGAQMPLFALGISHALVSYYMDWDTTKHEVKKISILFCCGAVVTVIVHGIEHLCFGTMGERLTLRVRERMFSAMLRNEIAWFDDTNNTSSMLSSRLESDATLLRTIVVDRSTILLQNVGLVVASFIIAFLLNWRITLVVLATYPLVISGHISEKLFMQGYGGNLSKAYLKANMLAGEAVSNIRTVAAFCAEQKVLDLYARELVEPSKRSFTRGQIAGIFYGISQFFIFSSYGLALWYGSVLMGKELSSFKSVMKSFMVLIVTALAMGETLALAPDLLKGNQMVASVFEVLDRKTEVSGDSGEELASVDGTIELRDIHFSYPSRPDVVIFKDFNLKVRSGKSMALVGQSGSGKSSVISIILRFYDPTSGKVLIDGKDMKKLKLKSLRKHIGLVQQEPALFATSIYENILYGKEGASESEVIEAAKLANAHSFISALPEGYSTKVGERGVQLSGGQRQRVAIARAVLKNPEILLLDEATSALDVESERVVQQALDRLMKNRTTIMVAHRLSTIKNADQISVIQDGKIIEQGTHSTLIDNTNGPYYKLINIQQQQQQQL
modifications: ABC+PTR Transporter amino acid sequence (of the 12 identified gene products)
net uptake of CBD into yeast cells compared to control (empty vector) yeast (yeast cells [3]): reduced net uptake of CBD
inhibition of yeast growth in response to CBD, transporter-expressing yeast vs control yeast (yeast cells [2]; FIG. 2): reduced inhibition of growth
effect on the uptake of CBD in tobacco BY-2 cells (tobacco BY-2 cells [4]; 5 hour uptake, FIG. 7): strong effect

B3: T-AG0100-1: Cannabis PTR/NRT transporter gene product, amino acid SEQ ID NO: 53 (protein)
chain: MNMEVMSRDFDQSGGGKRGGNRAAFFVYIMEGLESMAFISNSASLVIYFFSYMNYSLTKSSTMLTNLLGTATLLSLLGGFISDTYLTRFATTLIFASIELMGYIVLLVQAHRSDLRPPKCLSITHQCEGASAGEAAILYTGLYLMALGTGGVKAALPALGADQFDPKKAKQLSTYFNWFIFSLTIGSILGVTLVVWISTDKGWDWAFAVCAIALLLSIFFISLGNPFYRNNLPKGSPLLRFLRVFVASFRNRKLPIPENADELHEIYQDKEDDNLHHEILQRTDQFKFLDRAAVIRRTEDDDNDGSNSGSEWRVCTVTEVEETKILIRMLPIILTTIFMNTCLAQLQTFSVQQSVTMDRDFIGFEIPGPSVPAIPLLFMFILIPLYDRVFVPIARRVTGIPTGISHLQRIGIGLVLSAISMTVAGFVEKKRRNVAIQHDMVDSQDALPISVFWLGYQYAIFGAADMFTLVGMLEFFYAESSAGMKALSTAISWCSLAFGYYLSSVVVEIVNKVSGGWLANNNLNRDKLENFYWLLAGLSVVNFGVYVMCASWYKYKNVEMIKKDDAST
modifications: ABC+PTR Transporter amino acid sequence (of the 12 identified gene products)
fluorescence (FDA viability) of transporter-expressing BY2 cells in the presence of CBD (tobacco BY-2 cells [1]; FIG. 6A bottom): strong decrease
cell death in response to CBD of BY-2 cells expressing the transporter (tobacco BY-2 cells [1]; FIGS. 6A-B): increased cell death
net uptake of CBD into yeast cells compared to control (empty vector) yeast (yeast cells [3]): reduced net uptake of CBD
inhibition of yeast growth in response to CBD, transporter-expressing yeast vs control yeast (yeast cells [2]; FIG. 2): reduced inhibition of growth
growth inhibition by CBD, time course of yeast growth vs empty vector yeast (yeast cells [2]; 12 hour period, FIGS. 1A-B): reduced growth inhibition
effect on the uptake of CBD in tobacco BY-2 cells (tobacco BY-2 cells [4]; 4 hour uptake, FIG. 5): strong effect
